In the supplement of paper PMC10065799, “High-throughput profiling of sequence recognition by tyrosine kinases and SH2 domains using bacterial peptide display” (eLife, 2023):

Test system: AncSZ
Assay: phosphorylation enrichment, bacterial display (enrichment ratio); higher = better substrate or ligand; peptides without Tyr show the background
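Further: 11-residue human phosphosite peptides and single-mutation variants displayed on the E. coli surface, counted by deep sequencing, each peptide's frequency after selection divided by its frequency in the unselected input library; frequency after pTyr selection over input frequency; kinase dosed for 20-30% of maximal phosphorylation in three min.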

In order of falling phosphorylation enrichment:
1. LERFIYNPEEF [HLA-DPB1_Y59_R61P_YF]  2.02
2. HRGSLYLAIEY [TEK_Y899_Y897S]  1.87
3. GMTLSYLFWEP [NDUFS8_Y74_R77W]  1.85
4. MENFIYESMQF [CYP19A1_Y361_R365Q_YF]  1.81
5. HRGFLYLAIEY [TEK_Y899_Y897F]  1.5
6. QNWELYSEGLG [CNKSR1_Y665_R662W]  1.37
7. AIYWRYSKFFD [SH3PXD2B_Y45_R43W]  1.3
8. PSPMPYASCQM [FOXL2_Y215]  1.28
9. ERIELYELDKK [PMM2_Y145_F144L]  1.18
10. SCRENYSDSEE [LEMD3_Y258]  1.07
11. YFWDGYMPRQY [GSS_Y270_R267W]  1.01
12. FPKVRYHWLVL [APTX_Y214_A212V_YF]  0.994
13. RVDRDYVLKST [HTATIP2_Y111_A116T]  0.961
14. CTTIQYNYMCN [TP53_Y234_H233Q]  0.927
15. IDPFIYTPFGS [CYP3A4_Y432_YF]  0.927
16. PSRKDYETFQS [CTNND2_Y1154_P1159S_YF]  0.853
17. AHLLQYNHQVK [LGALS3_Y221_R224Q]  0.706
18. RHAASYSSDSE [REPS1_Y116]  0.702
19. LSTPEYGPKLK [TBC1D14_Y46_A43T]  0.673
20. YETDYYRKGGK [INSR_Y1190]  0.668
21. GLDGRYLLRDS [SH2D1A_Y29_S28R]  0.651
22. TDISLYPSGGT [TENM4_Y399_V396I]  0.637
23. SFGMVYEGNAR [INSR_Y1038]  0.629
24. GQAPGYSYTAA [CYCS_Y47]  0.601
25. SGFESYGSSSF [RPA2_Y9_YF]  0.591
26. VGNAAYQAGSL [STK36_Y1181_P1185S]  0.565
27. IKNSGYISRYL [EIF2AK3_Y585]  0.558
28. NKPTVYGVSPN [ABL1_Y226]  0.547
29. VLAHKYHGGGG [HBB_Y146_A141V]  0.376

Target: EPHB1 (UniProt P54762)
Sequence (P54762 whole entry, looked up): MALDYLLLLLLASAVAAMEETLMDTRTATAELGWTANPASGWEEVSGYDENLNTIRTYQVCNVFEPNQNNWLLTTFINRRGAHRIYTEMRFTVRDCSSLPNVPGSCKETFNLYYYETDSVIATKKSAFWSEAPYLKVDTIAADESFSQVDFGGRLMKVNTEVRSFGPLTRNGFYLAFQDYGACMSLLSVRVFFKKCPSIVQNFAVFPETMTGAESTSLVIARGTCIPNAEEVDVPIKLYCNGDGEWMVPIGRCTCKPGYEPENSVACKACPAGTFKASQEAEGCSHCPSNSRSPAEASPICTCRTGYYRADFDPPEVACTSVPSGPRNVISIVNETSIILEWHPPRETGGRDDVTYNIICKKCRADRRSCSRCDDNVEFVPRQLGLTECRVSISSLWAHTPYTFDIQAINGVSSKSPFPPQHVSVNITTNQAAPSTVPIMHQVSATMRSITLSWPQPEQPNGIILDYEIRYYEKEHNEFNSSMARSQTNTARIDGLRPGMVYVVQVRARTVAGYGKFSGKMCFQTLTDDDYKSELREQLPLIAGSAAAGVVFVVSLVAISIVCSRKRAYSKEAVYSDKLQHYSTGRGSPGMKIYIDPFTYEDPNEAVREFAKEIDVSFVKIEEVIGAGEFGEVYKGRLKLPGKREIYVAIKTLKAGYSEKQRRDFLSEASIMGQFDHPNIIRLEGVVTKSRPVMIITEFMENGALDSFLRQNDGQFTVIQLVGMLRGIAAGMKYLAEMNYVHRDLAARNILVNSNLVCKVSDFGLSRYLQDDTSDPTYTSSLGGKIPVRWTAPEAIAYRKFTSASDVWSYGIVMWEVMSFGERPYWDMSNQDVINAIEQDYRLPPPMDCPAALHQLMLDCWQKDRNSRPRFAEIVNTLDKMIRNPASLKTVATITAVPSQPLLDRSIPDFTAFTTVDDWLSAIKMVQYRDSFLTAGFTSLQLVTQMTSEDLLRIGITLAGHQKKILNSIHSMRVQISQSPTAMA
Assay: as above

In order of rising phosphorylation enrichment:
1. VLAHKYHGGGG [HBB_Y146_A141V]  0.354
2. RHAASYSSDSE [REPS1_Y116]  0.382
3. NKPTVYGVSPN [ABL1_Y226]  0.399
4. YETDYYRKGGK [INSR_Y1190]  0.41
5. GLDGRYLLRDS [SH2D1A_Y29_S28R]  0.423
6. SGFESYGSSSF [RPA2_Y9_YF]  0.433
7. VGNAAYQAGSL [STK36_Y1181_P1185S]  0.437
8. IKNSGYISRYL [EIF2AK3_Y585]  0.443
9. TDISLYPSGGT [TENM4_Y399_V396I]  0.46
10. LSTPEYGPKLK [TBC1D14_Y46_A43T]  0.47
11. SFGMVYEGNAR [INSR_Y1038]  0.479
12. GQAPGYSYTAA [CYCS_Y47]  0.483
13. RVDRDYVLKST [HTATIP2_Y111_A116T]  0.492
14. AHLLQYNHQVK [LGALS3_Y221_R224Q]  0.503
15. SCRENYSDSEE [LEMD3_Y258]  0.607
16. CTTIQYNYMCN [TP53_Y234_H233Q]  0.614
17. PSPMPYASCQM [FOXL2_Y215]  0.631
18. ERIELYELDKK [PMM2_Y145_F144L]  0.664
19. YFWDGYMPRQY [GSS_Y270_R267W]  0.68
20. IDPFIYTPFGS [CYP3A4_Y432_YF]  0.686
21. LERFIYNPEEF [HLA-DPB1_Y59_R61P_YF]  0.738
22. FPKVRYHWLVL [APTX_Y214_A212V_YF]  0.81
23. HRGSLYLAIEY [TEK_Y899_Y897S]  0.819
24. GMTLSYLFWEP [NDUFS8_Y74_R77W]  0.875
25. PSRKDYETFQS [CTNND2_Y1154_P1159S_YF]  0.91
26. AIYWRYSKFFD [SH3PXD2B_Y45_R43W]  0.982
27. HRGFLYLAIEY [TEK_Y899_Y897F]  0.986
28. QNWELYSEGLG [CNKSR1_Y665_R662W]  5.52
29. MENFIYESMQF [CYP19A1_Y361_R365Q_YF]  8.07
